# According to paper PMC6053418, “CTC1-STN1 terminates telomerase while STN1-TEN1 enables C-strand synthesis during telomere replication in colon cancer cells”:
# B1: smFRET junction, 18 nt overhang (dsDNA)
# DNA 1: TGGCGACGGCAGCGAGGCAGCGTATCCGTTCAGTTG
# DNA 2: GCCTCGCTGCCGTCGCCA
# B2: NonTel fold-back 18 nt 3' overhang (structured_DNA)
# DNA: ACGACTGCATCTAGCTTTTTGCTAGATGCAGTCGTAGCGTATCCGTTCAGTTG
# Legend:
# CS (CTC1-STN1) [1] = molecular target: T1, CS (CTC1-STN1) (Homo sapiens, UniProt Q2NKJ3;Q9H668 1-1217;1-368); assay: EMSA; apparent Kd; EMSA: 25 mM Tris-HCl pH 8.0, 100 mM NaCl, 1 mM DTT; 0.1 nM DNA, 30 min RT (Kd(app): 0.01 nM DNA, 18 h, 4 °C). smFRET: 25 mM Tris-HCl pH 8.0, 150 mM NaCl, 1 mM D; conditions: protein: recombinant; tags: FLAG-CTC1, FLAG-STN1; copies: 1;1; label: 32P
# T1 sequence (Q2NKJ3 whole entry, chain 1 of 2): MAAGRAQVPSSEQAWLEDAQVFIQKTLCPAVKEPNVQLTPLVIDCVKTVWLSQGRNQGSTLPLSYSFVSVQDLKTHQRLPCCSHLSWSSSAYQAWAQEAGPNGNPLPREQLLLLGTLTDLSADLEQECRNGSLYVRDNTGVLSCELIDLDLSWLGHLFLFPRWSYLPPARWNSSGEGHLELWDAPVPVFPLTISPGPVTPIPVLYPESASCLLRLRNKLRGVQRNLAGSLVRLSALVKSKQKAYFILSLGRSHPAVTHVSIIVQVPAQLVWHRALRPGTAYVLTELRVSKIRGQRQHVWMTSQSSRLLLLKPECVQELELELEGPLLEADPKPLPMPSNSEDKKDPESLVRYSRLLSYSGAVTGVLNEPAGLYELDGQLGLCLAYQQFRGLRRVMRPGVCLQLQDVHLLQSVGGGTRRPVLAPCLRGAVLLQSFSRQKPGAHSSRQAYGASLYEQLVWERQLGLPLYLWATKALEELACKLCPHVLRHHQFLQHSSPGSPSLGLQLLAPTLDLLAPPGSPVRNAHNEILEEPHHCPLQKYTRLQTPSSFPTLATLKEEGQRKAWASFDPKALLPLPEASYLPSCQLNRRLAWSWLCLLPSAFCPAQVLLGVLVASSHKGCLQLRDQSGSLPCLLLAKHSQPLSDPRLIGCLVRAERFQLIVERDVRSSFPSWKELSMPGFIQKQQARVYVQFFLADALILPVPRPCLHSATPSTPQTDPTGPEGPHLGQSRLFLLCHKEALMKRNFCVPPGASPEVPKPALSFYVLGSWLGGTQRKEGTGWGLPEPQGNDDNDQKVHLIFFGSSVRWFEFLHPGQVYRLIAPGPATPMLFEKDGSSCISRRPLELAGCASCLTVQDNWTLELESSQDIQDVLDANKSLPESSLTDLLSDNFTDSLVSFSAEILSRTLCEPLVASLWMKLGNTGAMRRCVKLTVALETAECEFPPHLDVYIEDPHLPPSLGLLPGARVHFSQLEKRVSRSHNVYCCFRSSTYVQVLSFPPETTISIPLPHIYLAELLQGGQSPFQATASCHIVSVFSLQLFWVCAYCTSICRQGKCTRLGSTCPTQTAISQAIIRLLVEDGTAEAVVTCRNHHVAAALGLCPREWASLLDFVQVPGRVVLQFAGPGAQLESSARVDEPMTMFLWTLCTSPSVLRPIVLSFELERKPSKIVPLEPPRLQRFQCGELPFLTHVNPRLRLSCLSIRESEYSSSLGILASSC
# T1 sequence (Q9H668 whole entry, chain 2 of 2): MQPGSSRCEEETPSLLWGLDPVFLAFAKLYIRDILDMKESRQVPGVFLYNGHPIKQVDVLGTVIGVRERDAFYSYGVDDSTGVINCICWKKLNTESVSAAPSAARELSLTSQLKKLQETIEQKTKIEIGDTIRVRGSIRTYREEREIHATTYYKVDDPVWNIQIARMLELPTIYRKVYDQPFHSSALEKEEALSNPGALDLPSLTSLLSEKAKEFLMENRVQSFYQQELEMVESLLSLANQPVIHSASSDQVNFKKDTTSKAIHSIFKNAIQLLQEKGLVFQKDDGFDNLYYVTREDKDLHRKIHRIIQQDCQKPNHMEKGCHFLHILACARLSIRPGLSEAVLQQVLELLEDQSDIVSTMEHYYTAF
# CST (CTC1-STN1-TEN1) [2] = molecular target: T2, CST (CTC1-STN1-TEN1) (Homo sapiens, UniProt Q2NKJ3;Q9H668;Q86WV5 1-1217;1-368;1-123); assay: as above; conditions: protein: recombinant; tags: FLAG-CTC1, FLAG-STN1, untagged TEN1; copies: 1;1;1; label: 32P
# T2 sequence (Q2NKJ3 whole entry, chain 1 of 3): as the sequence (Q2NKJ3 whole entry, chain 1 of 2) above
# T2 sequence (Q9H668 whole entry, chain 2 of 3): as the sequence (Q9H668 whole entry, chain 2 of 2) above
# T2 sequence (Q86WV5 whole entry, chain 3 of 3): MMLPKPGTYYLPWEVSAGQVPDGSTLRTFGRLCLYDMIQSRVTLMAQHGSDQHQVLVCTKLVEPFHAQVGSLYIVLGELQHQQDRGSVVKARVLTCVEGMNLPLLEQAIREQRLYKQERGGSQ
# CS (CTC1-STN1) [3] = molecular target: T1, CS (CTC1-STN1); assay: smFRET; 2 nM protein, imaged immediately; dwell time 8.22 ± 0.64 (s; assigned from figure text), 43% lower than CST; lost after flushing; EMSA: 25 mM Tris-HCl pH 8.0, 100 mM NaCl, 1 mM DTT; 0.1 nM DNA, 30 min RT (Kd(app): 0.01 nM DNA, 18 h, 4 °C). smFRET: 25 mM Tris-HCl pH 8.0, 150 mM NaCl, 1 mM D; conditions: protein: recombinant; tags: FLAG-CTC1, FLAG-STN1; copies: 1;1; label: strand 1 3'-Cy3; strand 2 5'-Cy5 and 3'-biotin; 18 bp duplex, 3' overhang 18 nt
# CST (CTC1-STN1-TEN1) [4] = molecular target: T2, CST (CTC1-STN1-TEN1); assay: smFRET; 2 nM protein; dwell time 14.32 ± 0.81 (s; assigned from figure text); EMSA: 25 mM Tris-HCl pH 8.0, 100 mM NaCl, 1 mM DTT; 0.1 nM DNA, 30 min RT (Kd(app): 0.01 nM DNA, 18 h, 4 °C). smFRET: 25 mM Tris-HCl pH 8.0, 150 mM NaCl, 1 mM D; conditions: protein: recombinant; tags: FLAG-CTC1, FLAG-STN1, untagged TEN1; copies: 1;1;1; label: strand 1 3'-Cy3; strand 2 5'-Cy5 and 3'-biotin; 18 bp duplex, 3' overhang 18 nt
# CS (CTC1-STN1) [5] = molecular target: T1, CS (CTC1-STN1); assay: EMSA; about 5-fold less efficient than CST; EMSA: 25 mM Tris-HCl pH 8.0, 100 mM NaCl, 1 mM DTT; 0.1 nM DNA, 30 min RT (Kd(app): 0.01 nM DNA, 18 h, 4 °C). smFRET: 25 mM Tris-HCl pH 8.0, 150 mM NaCl, 1 mM D; conditions: protein: recombinant; tags: FLAG-CTC1, FLAG-STN1; copies: 1;1; label: 32P; hairpin, 15 bp stem, T5 loop, 3' overhang 18 nt
# CST (CTC1-STN1-TEN1) [6] = molecular target: T2, CST (CTC1-STN1-TEN1); assay: EMSA; EMSA: 25 mM Tris-HCl pH 8.0, 100 mM NaCl, 1 mM DTT; 0.1 nM DNA, 30 min RT (Kd(app): 0.01 nM DNA, 18 h, 4 °C). smFRET: 25 mM Tris-HCl pH 8.0, 150 mM NaCl, 1 mM D; conditions: protein: recombinant; tags: FLAG-CTC1, FLAG-STN1, untagged TEN1; copies: 1;1;1; label: 32P; hairpin, 15 bp stem, T5 loop, 3' overhang 18 nt
Binder,Kd (CS (CTC1-STN1) [1]) [nM],Kd (CST (CTC1-STN1-TEN1) [2]) [nM],other results
GGTTAGGGTTAGGGTTAG (ssDNA) [Tel-18],1.04 ± 0.46,0.21 ± 0.07,–
GGTTAGGGTTAGGGTTAGGGTTAGGGTTAGGGTTAG (ssDNA) [Tel-36],0.33 ± 0.08,0.02 ± 0.03,–
B1,–,–,binding result (CS (CTC1-STN1) [3]): binds; binding result (CST (CTC1-STN1-TEN1) [4]): binds
B2,–,–,binding result (CS (CTC1-STN1) [5]): binds; binding result (CST (CTC1-STN1-TEN1) [6]): binds
AGCGTATCCGTTCAGTTGAGCGTATCCGTTCAGTTGAGCGTATCCGTT (ssDNA) [NonTel-48],0.08 ± 0.05,0.01 ± 0.005,–
